Substitutions are numbered along the chain they refer to.
Columns and labels:
Experiment in all cases: SPR, Fab over captured mutant LAG-3-Fc;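 further: fc fusion variants captured on anti-human IgG Fc sensor, Fab injected with association then dissociation phases, KD obtained from Langmuir one-to-one fit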
[1] = target: T1, human LAG-3 domain 1-2 Fc fusion, point mutation #69 R129A (human, UniProt P18627 23-266)
T1 construct: not shown: human IgG1 Fc, AA P101-K330
T1 sequence: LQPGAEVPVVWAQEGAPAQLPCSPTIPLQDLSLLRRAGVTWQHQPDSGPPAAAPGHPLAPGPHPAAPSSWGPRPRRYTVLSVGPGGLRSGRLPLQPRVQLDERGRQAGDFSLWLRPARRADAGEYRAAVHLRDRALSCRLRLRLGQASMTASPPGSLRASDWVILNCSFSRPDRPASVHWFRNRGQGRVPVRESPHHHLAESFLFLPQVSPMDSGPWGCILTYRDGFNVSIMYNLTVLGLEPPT

[2] = target: T2, human LAG-3 domain 1-2 Fc fusion, point mutation #7 P49A (human, UniProt P18627 23-266)
T2 construct: not shown: human IgG1 Fc, AA P101-K330
T2 sequence: T1 sequence with P27A, A107R

[3] = target: T3, human LAG-3 domain 1-2 Fc fusion, point mutation #50 P106A (human, UniProt P18627 23-266)
T3 construct: not shown: human IgG1 Fc, AA P101-K330
T3 sequence: T1 sequence with P84A, A107R

[4] = target: T4, human LAG-3 domain 1-2 Fc fusion, point mutation #21 A74S (human, UniProt P18627 23-266)
T4 construct: not shown: human IgG1 Fc, AA P101-K330
T4 sequence: T1 sequence with A52S, A107R

[5] = target: T5, human LAG-3 domain 1-2 Fc fusion, point mutation #77 R148A (human, UniProt P18627 23-266)
T5 construct: not shown: human IgG1 Fc, AA P101-K330
T5 sequence: T1 sequence with A107R, R126A

[6] = target: T6, human LAG-3 domain 1-2 Fc fusion, point mutation #42 R95A (human, UniProt P18627 23-266)
T6 construct: not shown: human IgG1 Fc, AA P101-K330
T6 sequence: T1 sequence with R73A, A107R

[7] = target: T7, human LAG-3 domain 1-2 Fc fusion, point mutation #61 R119A (human, UniProt P18627 23-266)
T7 construct: not shown: human IgG1 Fc, AA P101-K330
T7 sequence: T1 sequence with R97A, A107R

[8] = target: T8, human LAG-3 domain 1-2 Fc fusion, point mutation #1 A40S (human, UniProt P18627 23-266)
T8 construct: not shown: human IgG1 Fc, AA P101-K330
T8 sequence: T1 sequence with A18S, A107R

[9] = target: T9, human LAG-3 domain 1-2 Fc fusion, point mutation #25 H78A (human, UniProt P18627 23-266)
T9 construct: not shown: human IgG1 Fc, AA P101-K330
T9 sequence: T1 sequence with H56A, A107R

B1: Fab fragment of antibody 15572 (Fab, V domains shown, not shown: a dimerising Fc or GST)
VH: QLQLQESGPGLVKPSETLSLTCTVSGDSISSSSYYWGWIRQPPGKGLEWIGSIFYSGNTYYNPSLKSRVTISVDTSKNQFSLKLSSVTAADTAVYYCAREDDFLTDYYGAFDIWGQGTMVTVSS
VL: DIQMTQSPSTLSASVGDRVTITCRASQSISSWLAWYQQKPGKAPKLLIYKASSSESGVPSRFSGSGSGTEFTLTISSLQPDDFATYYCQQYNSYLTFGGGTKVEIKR
notes: monomeric Fab made by GingisKHAN digestion of the IgG1
Does B1 bind [1]?
Result: no binding (tested: 300 nM)

Does B1 bind [2]?
Result: no binding (tested: 300 nM)

Does B1 bind [3]?
Result: no binding (tested: 300 nM)

And the “KD mutant/KD wild type” value [4]?
The value was 0.7 fold.

Does B1 bind [5]?
Result: no binding (tested: 300 nM)

And the “KD mutant/KD wild type” value [6]?
The value was 0.6 fold.

Does B1 bind [7]?
Result: no binding (tested: 300 nM)

Does B1 bind [8]?
Result: no binding (tested: 300 nM)

What about the “KD mutant/KD wild type” value [9] of the same binder?
Its value is 0.5 fold.

B2: Fab fragment of antibody 15011 (Fab, V domains shown, not shown: a dimerising Fc or GST)
VH: EVQLLESGGGLVQPGGSLRLSCAASGFDFRSYAMMWVRQAPGKGLEWVGGINGEVGGSNTYYAPAVKGRATISRDNSKNTLYLQMNSLRAEDTAVYYCVKGAGACGICNDDIDAWGQGTLVTVSS
VL: SYELTQDPAVSVALGQTVRITCSGAGSYAGSYYYGWHQQKPGQAPVTVIYDNDKRPSNIPDRFSGSSSGNTASLTITGAQAEDEADYYCGSTNDNDDGGLFGSGTKVTVLG
notes: as for B1
Which results are given for B2?
KD mutant/KD wild type [1]: 0.7 fold; KD mutant/KD wild type [2]: 0.8 fold; KD mutant/KD wild type [3]: 4.6 fold; KD mutant/KD wild type [4]: 0.8 fold; KD mutant/KD wild type [5]: 0.7 fold; KD mutant/KD wild type [6]: 0.7 fold; KD mutant/KD wild type [7]: 0.6 fold; KD mutant/KD wild type [8]: 0.6 fold; KD mutant/KD wild type [9]: 0.7 fold

B3: Fab fragment of antibody 15532 (Fab, V domains shown, not shown: a dimerising Fc or GST)
VH: QVQLQQWGAGLLRPSETLSLTCAVYGESFSGYYWNWIRQPPGKGLEWIGEINHSGSTNYNPSLKSRVTISVDTSKTQFSLKLSSVTAADTAVYYCARGWDLLDWNDYWNEYWGQGTLVTVSS
VL: EIVLTQSPATLSLSPGERATLSCRASQSVSSYLAWYQQKPGQAPRLLIYDASNRATGIPARFSGSGSGTDFTLTISSLEPEDFAVYYCQQRSNWPLTFGGGTKVEIKR
notes: as for B1
For B3, which “KD mutant/KD wild type” value [1] is on record?
Its value is 3 fold.

And the “KD mutant/KD wild type” value [2]?
The value was 1.7 fold.

And the “KD mutant/KD wild type” value [3]?
Its value is 2.7 fold.

And the “KD mutant/KD wild type” value [4]?
Its value is 1 fold.

What about the “KD mutant/KD wild type” value [5] of the same binder?
The value was 2.9 fold.

And the “KD mutant/KD wild type” value [6]?
Its value is 3.7 fold.

And the “KD mutant/KD wild type” value [7]?
The value was 3.2 fold.

And the “KD mutant/KD wild type” value [8]?
Its value is 4.4 fold.

And the “KD mutant/KD wild type” value [9]?
The value was 0.9 fold.

B4: Fab fragment of antibody 15431 (Fab, V domains shown, not shown: a dimerising Fc or GST)
VH: QVQLQQSGPGLVKPSQTLSLTCAISGDSVSSNSAAWNWIRQSPSRGLEWLGRTYYRSKWYNDYAVSVKSRITINPDTSKNQFSLQLNSVTPEDTAVYYCARDDDWNDFDYWGQGTLVTVSS
VL: B3 VL
notes: as for B1
What does the source list for B4?
binding result [1]: no binding (tested: 300 nM); binding result [2]: no binding (tested: 300 nM); binding result [3]: no binding (tested: 300 nM); KD mutant/KD wild type [4]: 0.8 fold; binding result [5]: no binding (tested: 300 nM); KD mutant/KD wild type [6]: 1.9 fold; binding result [7]: no binding (tested: 300 nM); binding result [8]: no binding (tested: 300 nM); KD mutant/KD wild type [9]: 0.4 fold
